According to patent publication US20170015742A1 (published 2017):

T1: Cynomolgus monkey PDGF-BB (cynomolgus monkey, UniProt P01127 82-190 (human entry), limits assumed)
T1 chain: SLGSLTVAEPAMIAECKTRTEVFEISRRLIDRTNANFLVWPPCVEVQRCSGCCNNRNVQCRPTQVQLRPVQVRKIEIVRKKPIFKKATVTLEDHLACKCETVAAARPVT

B1: chBDI-1E1 half body (antibody, V domains shown)
VH: EVKLQQSGDELVRPGASVKMSCKASGYTFTDYVMHWVKQSPGQGLEWIGTIIPLIDTTSYNQKFKGKATLTADKSSNTAYMELSRLTSEDSAVYYCARTSPYYYSSYDVMDAWGQGASVTVSS
VL: NIQLTQSPSLLSASVGDRVTLSCKGSQNINNYLAWYQQKLGEAPKLLIYKTNNLQTGIPSRFSGCGSGTDYTLTISSLHSEDLATYYCYQYDNGYTFGAGTKLELK
B2: CL-33683-IgG (antibody, V domains shown)
VH: EVTLRESGPALVKPTQTLTLTCTFSGFSLSTYGMGVGWIRQPPGKALEWLANIWWDDDKYYNPSLKNRLTISKDTSKNQVVLTMTNMDPVDTATYYCARIETIGPKYSFDYWGQGTMVTVSS
VL: EIVLTQSPGTLSLSPGERATLSCRASSGSIWYSFVSWYQQKPGQAPRLLIYADDQRASGIPDRFSGSGSGTDFTLTISRLEPEDFAVYYCQSYGINIDVVFGGGTKVEIK
B3: CL-33820-IgG (antibody, V domains shown)
VH: EVTLRESGPALVKPTQTLTLTCTFSGFSLSTYGMGVGWIRQPPGKALEWLANIWWDDDKYYNPSLKNRLTISKDTSKNQVVLTMTNMDPVDTATYYCARIESSFTSYSFDYWGQGTMVTVSS
VL: EIVLTQSPGTLSLSPGERATLSCKRSSGSIYDTYVSWYQQKPGQAPRLVIYSDDQRPSGIPDRFSGSGSGTDFTLTISRLEPEDFAVYYCQSYDLTIDITFGGGTKVEIK
B4: CL-33805-IgG (antibody, V domains shown)
VH: EVTLRESGPALVKPTQTLTLTCTFSGFSLSTYGMGVGWIRQPPGKALEWLANIWWDDDKYYNPSLKNRLTISKDTSKNQVVLTMTNMDPVDTATYYCARIESHWWSYAFDYWGQGTMVTVSS
VL: EIVLTQSPGTLSLSPGERATLSCERSSGSNYDTYVSWYQQKPGQAPRLLIYADDLRASGIPDRFSGSGSGTDFTLTISRLEPEDFAVYYCQSYGIETDIVFGGGTKVEIK
B5: CL-33701-IgG (antibody, V domains shown)
VH: EVTLRESGPALVKPTQTLTLTCTFSGFSLSTYGMGVGWIRQPPGKALEWLANIWWDDDKYYNPSLKNRLTISKDTSKNQVVLTMTNMDPVDTATYYCARIESLGTSYSFDYWGQGTMVTVSS
VL: EIVLTQSPGTLSLSPGERATLSCERSSGDIWDYYVSWYQQKPGQAPRLVIYADDQRPSGIPDRFSGSGSGTDFTLTISRLEPEDFAVYYCQSYDLFIDVTFGGGTKVEIK
B6: CL-33803-IgG (antibody, V domains shown)
VH: EVTLRESGPALVKPTQTLTLTCTFSGFSLSTYGMGVGWIRQPPGKALEWLANIWWDDDKYYNPSLKNRLTISKDTSKNQVVLTMTNMDPVDTATYYCARIESLPTSYSFDYWGQGTMVTVSS
VL: EIVLTQSPGTLSLSPGERATLSCERSSGDIWDTYVSWYQQKPGQAPRLLIYADDQRPSGIPDRFSGSGSGTDFTLTISRLEPEDFAVYYCQSYDIIIDIVFGGGTKVEIK
B7: CL-33812-IgG (antibody, V domains shown)
VH: EVTLRESGPALVKPTQTLTLTCTFSGFSLSTYGMGVGWIRQPPGKALEWLANIWWDDDKYYNPSLKNRLTISKDTSKNQVVLTMTNMDPVDTATYYCARIESNPWKYSFDYWGQGTMVTVSS
VL: EIVLTQSPGTLSLSPGERATLSCERSSGDIWQSYVSWYQQKPGQAPRLVIYSDDQRASGIPDRFSGSGSGTDFTLTISRLEPEDFAVYYCQSYGINIDVVFGGGTKVEIK
B8: CL-33731-IgG (antibody, V domains shown)
VH: EVTLRESGPALVKPTQTLTLTCTFSGFSLSTYGMGVGWIRQPPGKALEWLANIWWDDDKYYNPSLKNRLTISKDTSKNQVVLTMTNMDPVDTATYYCARIESIPTSYSFDYWGQGTMVTVSS
VL: EIVLTQSPGTLSLSPGERATLSCERSSGSIWQSYVSWYQQKPGQAPRLVIYADDQRATGIPDRFSGSGSGTDFTLTISRLEPEDFAVYYCQSYDIDIDVVFGGGTKVEIK
B9: CL-33855-IgG (antibody, V domains shown)
VH: EVTLRESGPALVKPTQTLTLTCTFSGFSLSTYGMGVGWIRQPPGKALEWLANIWWDDDKYYNPSLKNRLTISKDTSKNQVVLTMTNMDPVDTATYYCARIETFGPKYSFDYWGQGTMVTVSS
VL: EIVLTQSPGTLSLSPGERATLSCRASSGSIWYSFVSWYQQKPGQAPRLLIYADDQRASGIPDRFSGSGSGTDFTLTISRLEPEDFAVYYCQSYGINIDVVFGGGTKVEIK
B10: CL-33706-IgG (antibody, V domains shown)
VH: EVTLRESGPALVKPTQTLTLTCTFSGFSLSTYGMGVGWIRQPPGKALEWLANIWWDDDKYYNPSLKNRLTISKDTSKNQVVLTMTNMDPVDTATYYCARIETMGPKYSFDYWGQGTMVTVSS
VL: EIVLTQSPGTLSLSPGERATLSCRASSGSIWYSFVSWYQQKPGQAPRLLIYADDQRASGIPDRFSGSGSGTDFTLTISRLEPEDFAVYYCQSYGINIDVVFGGGTKVEIK
B11: CL-33811-IgG (antibody, V domains shown)
VH: EVTLRESGPALVKPTQTLTLTCTFSGFSLSTYGMGVGWIRQPPGKALEWLANIWWDDDKYYNPSLKNRLTISKDTSKNQVVLTMTNMDPVDTATYYCARIESSWTTYSFDYWGQGTMVTVSS
VL: EIVLTQSPGTLSLSPGERATLSCERSSGSIWHSYVSWYQQKPGQAPRLLIYSDDQRATGIPDRFSGSGSGTDFTLTISRLEPEDFAVYYCQSYGIYIDVVFGGGTKVEIK
B12: chBDI-9E8 half-body (antibody, V domains shown)
VH: QVTLKESGPGILQPSQTLSLTCTFSGFSLSTYGMGVGWIRQPSGKGLEWLANIWWDDDKYYNPSLKNRLTISKDTSNNQAFLKITNVDTADTATYYCARIESIGTTYSFDYWGQGVMVTVSS
VL: QFTLTQPKSVSGSLRSTITIPCERSSGDIGDSYVSWYQQHLGRPPINVIYADDQRPSEVSDRFSGSIDSSSNSASLTITNLQMDDEADYFCQSYDINIDIVFGGGTKLTVL
B13: chBDI-5H1 half-body (antibody, V domains shown)
VH: QVTLKESGPGILQPSQTLSLTCTFSGFSLSTFGMGVGWIRQPSGKGLEWLANIWWDDDKYYNPSLKNRLTISKDTSNSQAFLEITNVDTADTATYYCARISTGISSYYVMDAWGQGASVTVSS
VL: QFTLTQPKSVSGSLRSTITIPCERSSGDIGDTYVSWYQQHLGRPPINVIYGNDQRPSEVSDRFSGSIDSSSNSASLTITNLQMDDEADYFCQSYDSDIDIVFGGGTKLTVL

Key:
[1] = target: recombinant human PDGF-BB (human, UniProt P01127 82-190, biotin-labelled in the binding and competition ELISAs (sites not given)); test: cell-based or functional assay
[2] = target: T2, Human PDGF-BB (human, UniProt P01127 82-190); test: competition ELISA: antibody pre-incubated with hPDGF-BB-biotin, binding to coated hPDGF-Rβ-Fc
T2 construct: Dimer of two B chains; also called hPDGF-BB; huPDGF-BB
Description: Plates were then washed four times with wash buffer (TBS, 0.05% Tween-20) and blocked with Superblock blocking buffer (Thermo Scientific, cat#37535). During the blocking step, supernatants, antibodies, benchmark compounds or DVD-Ig were diluted in assay diluent (10% Superblock containing 0.05% surfactamps) and an eight point titration of each sample molecule was performed. […] Following incubation, plates were washed four times with wash buffer. Detection reagent Streptavidin-polyHRP-40 (Fitzgerald, cat#65r-s104phrp) was diluted in assay diluent and added to plates (50 μL) for 45 minutes at 25° C. with shaking. Plates were washed four times with wash buffer and developed with the addition of Enhanced K-blue TMB substrate (Neogen, cat#308177). The reaction was stopped with 2N sulfuric acid (VWR, cat# BDH3500-1) and the absorbance was read at 450 nm-570 nm. […] Data was analyzed using Softmax Pro 4.8 software and IC₅₀ values calculated using a sigmoidal dose response (variable slope) fit in GraphPad Prism 5.
Potency was evaluated in both cell-based and ELISA formats.
Target sequence in this assay (P01127 82-190 limits assumed): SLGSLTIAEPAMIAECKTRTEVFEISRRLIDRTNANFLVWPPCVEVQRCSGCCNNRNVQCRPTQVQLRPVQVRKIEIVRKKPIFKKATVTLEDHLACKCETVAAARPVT

[3] = target: T1, Cynomolgus monkey PDGF-BB; test: cell-based or functional assay
[4] = target: T2, Human PDGF-BB; test: cell-based or functional assay
Target sequence in this assay (P01127 82-190 limits assumed): as above

[5] = target: T2, Human PDGF-BB; test: Biacore SPR, antibody captured by anti-human Fc, PDGF-BB as analyte
Description: Unreacted moieties on the biosensor surface were blocked with ethanolamine. For kinetic analysis, rate equations derived from the 1:1 Langmuir binding model were fitted simultaneously to multiple antigen injections (using global fit analysis) with the use of Scrubber 2 (BioLogic Software), Biacore Biaevaluation 4.0.1 software or Biacore T100 Evaluation software. Purified antibodies or DVD-Ig molecules were diluted in running buffer for capture across goat anti-human Fc reaction surfaces. Antibodies or DVD-Ig molecules to be captured as a ligand (1 μg/ml) were injected over reaction matrices at a flow rate of 10 μl/minute. During the assay, all measurements were referenced against the capture surface alone (i.e., with no captured antibody or DVD-Ig molecule). […] The equilibrium dissociation constant KD (M) of the reaction between antibodies and the target antigen was then calculated from the kinetic rate constants by the following formula: KD=Koff/Kₒₙ. Binding was recorded as a function of time and kinetic rate constants were calculated. In this assay, on-rates as fast as 10⁶M⁻¹s⁻¹ and off-rates as slow as 10⁻⁶ s⁻¹ could be measured. […]

Chain of recombinant human PDGF-BB (P01127 82-190 limits assumed): as above

Row | Binder | huPDGF-BB Neutralization Potency (nM) in NIH-3T3 Cells [1] [nM] | IC50 [2] [pM] | cynoPDGF-BB NIH-3T3 Proliferation IC50 [3] [pM] | hPDGF-BB NIH-3T3 Proliferation IC50 [4] [pM] | Kd [5] [pM] | kon [5] [M⁻¹ s⁻¹]
1 | B1 | > 10 |  |  |  |  | 
2 | B2 |  | 126 | 28 | 29 | 0.44 | 1.9e+07
3 | B3 |  | 66 | 13 | 17 | ≤ 0.16 | ≥ 9.8e+07
4 | B4 |  | 63 | 18 | 39 | 0.21 | 6.8e+07
5 | B5 |  | 59 | 12 | 56 | 0.24 | 7.3e+07
6 | B6 |  | 44 | 18 | 24 | ≤ 0.16 | ≥ 9e+07
7 | B7 |  | 43 | 28 | 33 | 0.3 | 6.3e+07
8 | B8 |  | 68 | 23 | 36 | 0.2 | 8.1e+07
9 | B9 |  | 162 | 19 | 37 | ≤ 0.05 | 2e+07
10 | B10 |  | 81 | 19 | 35 | 0.69 | 1.8e+07
11 | B11 |  | 100 | 12 | 32 | 0.45 | 2.7e+07
12 | B12 | 1.84 |  |  |  |  | 
13 | B13 | > 10 |  |  |  |  | 
